Here are results for 47 variants from the Human Domainome abundance scans (Beltran et al. 2025).

B1: POU domain, class 3, transcription factor 3, residues 408 to 463; numbered along this chain, P20264 (parent)
chain: KKRTSIEVSVKGALESHFLKCPKPSAQEITNLADSLQLEKEVVRVWFCNRRQKEKR

± gives the uncertainty stated by the source.

Variants of B1 are the subject of this data set. In words: abundance fitness (aPCA) (normalised: wild type 0, dead -1); higher = more abundant; growth selection in yeast, the domain comes from the species named. Conditions: Homo sapiens.
Consider KKRTSIEVSVKGALESHFSKCPKPSAQEITNLADSLQLEKEVVRVWFCNRRQKEKR [L19S], for which the abundance fitness was -0.047 ± 0.069.
Then KKRTSIEVSVKGALESHFTKCPKPSAQEITNLADSLQLEKEVVRVWFCNRRQKEKR [L19T], with -0.155 ± 0.093.
Turning to KKRTSIEVSVKGALESHFPKCPKPSAQEITNLADSLQLEKEVVRVWFCNRRQKEKR [L19P], the abundance fitness was -1.09 ± 0.19.
Then KKRTSIEVSVKGALESHFQKCPKPSAQEITNLADSLQLEKEVVRVWFCNRRQKEKR [L19Q], with 0.002 ± 0.1; and KKRTSIEVSVKGALESHFHKCPKPSAQEITNLADSLQLEKEVVRVWFCNRRQKEKR [L19H], with -0.173 ± 0.097.
Take KKRTSIEVSVKGALESHFYKCPKPSAQEITNLADSLQLEKEVVRVWFCNRRQKEKR [L19Y]: the abundance fitness is -0.288 ± 0.15.
Turning to KKRTSIEVSVKGALESHFEKCPKPSAQEITNLADSLQLEKEVVRVWFCNRRQKEKR [L19E], the abundance fitness was -0.086 ± 0.1.
On to KKRTSIEVSVKGALESHFDKCPKPSAQEITNLADSLQLEKEVVRVWFCNRRQKEKR [L19D], for which the abundance fitness is -0.191 ± 0.11.
KKRTSIEVSVKGALESHFWKCPKPSAQEITNLADSLQLEKEVVRVWFCNRRQKEKR [L19W]: the abundance fitness was -0.339 ± 0.074.
Turning to KKRTSIEVSVKGALESHFGKCPKPSAQEITNLADSLQLEKEVVRVWFCNRRQKEKR [L19G], the abundance fitness is -0.238 ± 0.062.
Regarding KKRTSIEVSVKGALESHFRKCPKPSAQEITNLADSLQLEKEVVRVWFCNRRQKEKR [L19R], the abundance fitness is -0.024 ± 0.059.
As for KKRTSIEVSVKGALESHFCKCPKPSAQEITNLADSLQLEKEVVRVWFCNRRQKEKR [L19C], the abundance fitness was -0.138 ± 0.091.
Then KKRTSIEVSVKGALESHFAKCPKPSAQEITNLADSLQLEKEVVRVWFCNRRQKEKR [L19A], with -0.029 ± 0.086.
Regarding KKRTSIEVSVKGALESHFVKCPKPSAQEITNLADSLQLEKEVVRVWFCNRRQKEKR [L19V], the abundance fitness was -0.075 ± 0.066.
Then KKRTSIEVSVKGALESHFKKCPKPSAQEITNLADSLQLEKEVVRVWFCNRRQKEKR [L19K], with -0.057 ± 0.091; and KKRTSIEVSVKGALESHFMKCPKPSAQEITNLADSLQLEKEVVRVWFCNRRQKEKR [L19M], with 0.033 ± 0.099.
As to KKRTSIEVSVKGALESHFFKCPKPSAQEITNLADSLQLEKEVVRVWFCNRRQKEKR [L19F], the abundance fitness is -0.346 ± 0.11.
Then KKRTSIEVSVKGALESHFNKCPKPSAQEITNLADSLQLEKEVVRVWFCNRRQKEKR [L19N], with 0.014 ± 0.13; and KKRTSIEVSVKGALESHYLKCPKPSAQEITNLADSLQLEKEVVRVWFCNRRQKEKR [F18Y], with 0.026 ± 0.12.
Consider KKRTSIEVSVKGALESHELKCPKPSAQEITNLADSLQLEKEVVRVWFCNRRQKEKR [F18E], for which the abundance fitness was -0.875 ± 0.12.
Then KKRTSIEVSVKGALESHQLKCPKPSAQEITNLADSLQLEKEVVRVWFCNRRQKEKR [F18Q], with -0.703 ± 0.2; and KKRTSIEVSVKGALESHLLKCPKPSAQEITNLADSLQLEKEVVRVWFCNRRQKEKR [F18L], with -1.01 ± 0.11; and KKRTSIEVSVKGALESHDLKCPKPSAQEITNLADSLQLEKEVVRVWFCNRRQKEKR [F18D], with -0.568 ± 0.16.
Then KKRTSIEVSVKGALESHHLKCPKPSAQEITNLADSLQLEKEVVRVWFCNRRQKEKR [F18H], with -0.932 ± 0.21.
Then KKRTSIEVSVKGALESHILKCPKPSAQEITNLADSLQLEKEVVRVWFCNRRQKEKR [F18I], with -0.973 ± 0.2; and KKRTSIEVSVKGALESHSLKCPKPSAQEITNLADSLQLEKEVVRVWFCNRRQKEKR [F18S], with -0.902 ± 0.11; and KKRTSIEVSVKGALESHTLKCPKPSAQEITNLADSLQLEKEVVRVWFCNRRQKEKR [F18T], with -0.922 ± 0.14.
Turning to KKRTSIEVSVKGALESHALKCPKPSAQEITNLADSLQLEKEVVRVWFCNRRQKEKR [F18A], the abundance fitness is -0.84 ± 0.091.
On to KKRTSIEVSVKGALESHKLKCPKPSAQEITNLADSLQLEKEVVRVWFCNRRQKEKR [F18K], for which the abundance fitness is -0.925 ± 0.15.
Then KKRTSIEVSVKGALESHNLKCPKPSAQEITNLADSLQLEKEVVRVWFCNRRQKEKR [F18N], with -1.18 ± 0.24; and KKRTSIEVSVKGALESHRLKCPKPSAQEITNLADSLQLEKEVVRVWFCNRRQKEKR [F18R], with -0.935 ± 0.097.
On to KKRTSIEVSVKGALESHWLKCPKPSAQEITNLADSLQLEKEVVRVWFCNRRQKEKR [F18W], for which the abundance fitness is -0.5 ± 0.096.
As for KKRTSIEVSVKGALESHCLKCPKPSAQEITNLADSLQLEKEVVRVWFCNRRQKEKR [F18C], the abundance fitness was -0.935 ± 0.16.
As for KKRTSIEVSVKGALESHVLKCPKPSAQEITNLADSLQLEKEVVRVWFCNRRQKEKR [F18V], the abundance fitness was -0.859 ± 0.077.
Then KKRTSIEVSVKGALERHFLKCPKPSAQEITNLADSLQLEKEVVRVWFCNRRQKEKR [S16R], with -0.011 ± 0.063.
Then KKRTSIEVSVKGALEYHFLKCPKPSAQEITNLADSLQLEKEVVRVWFCNRRQKEKR [S16Y], with -0.004 ± 0.14; and KKRTSIEVSVKGALETHFLKCPKPSAQEITNLADSLQLEKEVVRVWFCNRRQKEKR [S16T], with -0.067 ± 0.13.
For the variant KKRTSIEVSVKGALEVHFLKCPKPSAQEITNLADSLQLEKEVVRVWFCNRRQKEKR [S16V], the abundance fitness was -0.261 ± 0.075.
For the variant KKRTSIEVSVKGALEQHFLKCPKPSAQEITNLADSLQLEKEVVRVWFCNRRQKEKR [S16Q], the abundance fitness amounted to 0.012 ± 0.14.
With KKRTSIEVSVKGALEWHFLKCPKPSAQEITNLADSLQLEKEVVRVWFCNRRQKEKR [S16W], the abundance fitness was -0.502 ± 0.088.
Then KKRTSIEVSVKGALESHFLKQPKPSAQEITNLADSLQLEKEVVRVWFCNRRQKEKR [C21Q], with 0.084 ± 0.11.
Then KKRTSIEVSVKGALESHFLKLPKPSAQEITNLADSLQLEKEVVRVWFCNRRQKEKR [C21L], with -0.611 ± 0.088; and KKRTSIEVSVKGALESHFLKTPKPSAQEITNLADSLQLEKEVVRVWFCNRRQKEKR [C21T], with -0.094 ± 0.1; and KKRTSIEVSVKGALESHFLKSPKPSAQEITNLADSLQLEKEVVRVWFCNRRQKEKR [C21S], with 0.041 ± 0.086.
Then KKRTSIEVSVKGALESHFLKEPKPSAQEITNLADSLQLEKEVVRVWFCNRRQKEKR [C21E], with 0.048 ± 0.089; and KKRTSIEVSVKGALESHFLKRPKPSAQEITNLADSLQLEKEVVRVWFCNRRQKEKR [C21R], with -0.501 ± 0.063; and KKRTSIEVSVKGALESHFLKPPKPSAQEITNLADSLQLEKEVVRVWFCNRRQKEKR [C21P], with -0.719 ± 0.13.
